{"source": "patent US20230149516A1", "about": "“USE OF PEPTIDYLGLYCINE ALPHA-AMIDATING MONOOXYGENASE (PAM) FOR THERAPEUTIC PURPOSE” (PAM THERAGNOSITICS GMBH, priority 2020, published 2023)", "key": {"endogenous human ADM-Gly": {"system": "endogenous human ADM-Gly", "assay": "Conversion of endogenous ADM-Gly to bio-ADM in human Li-Heparin plasma with exogenous recombinant PAM", "type": "biochemical", "conditions": "37° C.", "text": "ADM-Gly was quantified as based on Weber et al. (Weber et al. 2017. JALM 2(2): 222-233) for bioactive ADM with the following modifications: the tracer-antibody used for ADM-Gly detection, labelled with MACN-acridinium-NHS, was directed to the C-terminal glycine of ADM-Gly. The assay was calibrated with synthetic ADM-Gly. The limit of detection (LOD) was 10 pg/mL of ADM-Gly. Cross-reactivity of antibody directed to the C-terminal glycine of ADM with bio-ADM was in the range between 6 and 50% in a concentration dependent manner. All determined ADM-Gly concentrations were corrected for cross-reactivity as follows: For each ADM-Gly quantification additional quantification of bio-ADM in corresponding samples was performed using the Sphingotest® bio-ADM immunoassay. […] The determined signal (RLU) was used to calculate the false-positive ADM-Gly concentration (pg/mL) using the ADM-Gly calibration curve. This concentration was subtracted from the initially determined ADM-Gly concentration.\nIn a further experiment we investigated the formation of bio-ADM from endogenous ADM-Gly by native human plasma PAM and the effect of addition of exogenous recombinant human PAM. […] The concentration of bio-ADM in the reaction sample was quantified using the Sphingotest® bio-ADM immunoassay as described recently (Weber et al. 2017. JALM 2(2): 222-233). […]"}, "circulating ADM-Gly": {"system": "circulating ADM-Gly", "assay": "bio-ADM increase after administration of recombinant human PAM in rats (example 9)", "type": "in vivo, Wistar-rat", "conditions": "intravenously administered recombinant human PAM", "method": "Two animals (Wistar-rat, male, 2-3 month of age) received 17 μg of recombinant human PAM (see example 1) as a single dose in a total volume of 500 μl (in phosphate-buffered saline). One control-animal received 500 μl of PBS. Blood sampling (Li-Heparin Plasma) was carried out 30 min prior to application and 30 min, 2 h, 4 h, 8 h, 24 h and 48 h, respectively, after application."}, "PAM activity": {"system": "PAM activity", "assay": "Circulating PAM activity in rats after intravenous injection of PAM, ascorbate or both, measured without exogenous ascorbate", "type": "in vivo, Wistar rats"}, "bio-ADM": {"system": "bio-ADM", "assay": "Circulating bio-ADM concentration in rats after intravenous injection of PAM, ascorbate or both", "type": "in vivo, Wistar rats"}, "[1]": {"assay": "Half-life of recombinant PAM in rats (example 10, one-phase decay model)", "type": "in vivo", "conditions": "example 10, single i.v. dose, FIG. 22", "method": "FIG. 22: Half-life of recombinant PAM in rats, determined from one-phase decay model.\nEndotoxin-free, recombinant PAM (SinoBiological) was buffer exchanged into sterile phosphate buffer saline (PBS, Dulbecco) and adjusted to 50 μg/mL. Sterile ascorbate solution for injection (200 mg/mL, vitamin C 1000, WÖRWAG Pharma) was purchased in a local pharmacy and adjusted under sterile conditions with PBS to 40 mg/mL. For combined injections of PAM and ascorbate, the compounds were prepared separately in equal volumes (100 μg/mL or 80 mg/mL for PAM and ascorbate, respectively). Both compounds were combined directly prior to injection to result in concentrations of 50 μg/mL for PAM and 40 mg/mL for ascorbate. Sterile PBS was used as placebo. All samples were stored at −80° C. until use. Animals, male Wistar rats, 2-3 month of age, were assigned into 4 groups (placebo, ascorbate, PAM, PAM+ascorbate) with 3 animals per group. Each animal in the individual group received 500 μl of the respective compound intravenously as a single dose injection. Blood sampling was performed as Li-Heparin 30 min prior to and 15, 30, 45, 60, 120, 180, 240 and 300 min post injection. PAM activities were determined as described in example 3."}}, "data": [{"molecule": "recombinant human PAM: Recombinant human peptidylglycine alpha-amidating monooxygenase, aa 21-834, SEQ ID No. 10 (Example 1); Example 10 used endotoxin-free recombinant PAM from SinoBiological (protein, listed as Homo sapiens) SPLSVFKRFKETTRPFSNECLGTTRPVVPIDSSDFALDIRMPGVTPKQSDTYFCMSMRIPVDEEAFVIDFKPRASMDTVHHMLLFGCNMPSSTGSYWFCDEGTCTDKANILYAWARNAPPTRLPKGVGFRVGGETGSKYFVLQVHYGDISAFRDNNKDCSGVSLHLTRLPQPLIAGMYLMMSVDTVIPAGEKVVNSDISCHYKNYPMHVFAYRVHTHHLGKVVSGYRVRNGQWTLIGRQSPQLPQAFYPVGHPVDVSFGDLLAARCVFTGEGRTEATHIGGTSSDEMCNLYIMYYMEAKHAVSFMTCTQNVAPDMFRTIPPEANIPIPVKSDMVMMHEHHKETEYKDKIPLLQQPKREEEEVLDQGDFYSLLSKLLGEREDVVHVHKYNPTEKAESESDLVAEIANVVQKKDLGRSDAREGAEHERGNAILVRDRIHKFHRLVSTLRPPESRVFSLQQPPPGEGTWEPEHTGDFHMEEALDWPGVYLLPGQVSGVALDPKNNLVIFHRGDHVWDGNSFDSKFVYQQIGLGPIEEDTILVIDPNNAAVLQSSGKNLFYLPHGLSIDKDGNYWVTDVALHQVFKLDPNNKEGPVLILGRSMQPGSDQNHFCQPTDVAVDPGTGAIYVSDGYCNSRIVQFSPSGKFITQWGEESSGSSPLPGQFTVPHSLALVPLLGQLCVADRENGRIQCFKTDTKEFVREIKHSSFGRNVFAISYIPGLLFAVNGKPHFGDQEPVQGFVMNFSNGEIIDIFKPVRKHFDMPHDIVASEDGTVYIGDAHTNTVWKFTLTEKLEHRSVKKAGIEVQEIKEAEAVVGS", "values": [{"measurement": "increase of the bio-ADM synthesis rate from endogenous human ADM-Gly (averaged factor)", "setting": "endogenous human ADM-Gly; 500 ng/ml exogenous recombinant PAM (approximate doubling of PAM concentration) in human Li-Heparin plasma pool with high ADM-Gly, at each time-point, vs native PAM alone", "result": 1.8}, {"measurement": "ADM-Gly consumption / shift of ADM-Gly/bio-ADM ratio", "setting": "endogenous human ADM-Gly; 500 ng/ml exogenous recombinant PAM in human Li-Heparin plasma", "result": "faster shift of the ADM-Gly/bio-ADM ratio towards bio-ADM"}, {"measurement": "time of maximum bio-ADM increase", "setting": "circulating ADM-Gly", "result": 4, "unit": "h"}, {"measurement": "maximal elevation of PAM activity compared to placebo group (factor)", "setting": "PAM activity; 15 minutes past injection", "result": 6}, {"measurement": "PAM activity compared to placebo group", "setting": "PAM activity; 120 min past injection", "result": "not significantly different"}, {"measurement": "time of maximal elevation of PAM activity past injection", "setting": "PAM activity; single i.v. injection", "result": 15, "unit": "min"}, {"measurement": "elevation of circulating PAM activity", "setting": "PAM activity; single i.v. injection of 500 μl (PAM 50 μg/mL, ascorbate 40 mg/mL), vs placebo", "result": "highly significant elevation"}, {"measurement": "time PAM activity remained elevated after injection", "setting": "PAM activity; single i.v. injection, significantly elevated for PAM and the combination", "result": 60, "unit": "min"}, {"measurement": "bio-ADM concentration elevated by the factor (normalized to placebo)", "setting": "bio-ADM; after 15 min", "result": 1.8}, {"measurement": "bio-ADM concentration elevated by the factor (normalized to placebo)", "setting": "bio-ADM; after 30 min", "result": 2.4}, {"measurement": "bio-ADM concentration elevated by the factor (normalized to placebo)", "setting": "bio-ADM; after 45 min", "result": 2}, {"measurement": "bio-ADM concentration elevated by the factor (normalized to placebo)", "setting": "bio-ADM; after 60 min", "result": "not significantly different"}, {"measurement": "bio-ADM concentration compared to the Placebo group", "setting": "bio-ADM; after 120 minutes", "result": "not significantly different"}, {"measurement": "time of maximum bio-ADM increase", "setting": "bio-ADM; intravenously administered, example 10", "result": 30, "unit": "min"}, {"measurement": "half-life of recombinant human PAM in rats", "setting": "[1]", "result": 52.7, "unit": "min"}]}]}
